Values quoted from earlier work, collected in patent publication US20150316548A1, “PROGRANULIN AS MARKER FOR AUTOIMMUNE DISORDERS” (UNIVERSITAET DES SAARLANDES, priority 2012, published 2015).

Experiments:
[1] = system: cytotoxic effects of TNF-α; conditions: in vitro; cited from earlier work
TNF-α-receptors 1 and 2 = conditions: mouse models, versus Etanercept; cited from earlier work
[2] = progranulin, reference [1]; cited from earlier work
TNF-Tg/GRN−/− mice = conditions: cited from earlier work

B1: progranulin: secreted glycoprotein, precursor with N-terminal signal peptide and seven granulin motifs; SEQ ID NO: 1 (protein, listed as Homo sapiens)
chain: MWTLVSWVALTAGLVAGTRCPDGQFCPVACCLDPGGASYSCCRPLLDKWPTTLSRHLGGPCQVDAHCSAGHSCIFTVSGTSSCCPFPEAVACGDGHHCCPRGFHCSADGRSCFQRSGNNSVGAIQCPDSQFECPDFSTCCVMVDGSWGCCPMPQASCCEDRVHCCPHGAFCDLVHTRCITPTGTHPLAKKLPAQRTNRAVALSSSVMCPDARSRCPDGSTCCELPSGKYGCCPMPNATCCSDHLHCCPQDTVCDLIQSKCLSKENATTDLLTKLPAHTVGDVKCDMEVSCPDGYTCCRLQSGAWGCCPFTQAVCCEDHIHCCPAGFTCDTQKGTCEQGPHQVPWMEKAPAHLSLPDPQALKRDVPCDNVSSCPSSDTCCQLTSGEWGCCPIPEAVCCSDHQHCCPQGYTCVAEGQCQRGSEIVAGLEKMPARRASLSHPRDIGCDQHTSCPVGQTCCPSLGGSWACCQLPHAVCCEDRQHCCPAGYTCNVKARSCEKEVVSAQPATFLARSPHVGVKDVECGEGHFCHDNQTCCRDNRQGWACCPYRQGVCCADRRHCCPAGFRCAARGTKCLRREAPRWDAPLRDPALRQLL
modifications: misc (1)..(593) Progranulin
- protection of cells from cytotoxic effects of TNF-α [1]: protected cells in vitro from cytotoxic effects of TNF-α
- strength of the anti-inflammatory effect (TNF-α-receptors 1 and 2): comparable to the effect of the synthetic TNF-blocker “Etanercept”
- half-life [2]: about 40 h
- clinical response of spontaneous arthritis (TNF-Tg/GRN−/− mice): rapid clinical recovery
- plasma levels of cartilage oligomeric matrix protein (COMP) (TNF-Tg/GRN−/− mice): decreased
